Data reported in patent US20080107658A1 (AstraZeneca / MedImmune, published 2008).

Tests used:
[1] = target: T1, rat nerve growth factor (beta-NGF) (rat, UniProt P25427 122-241); test: inhibition of rat 125I-NGF binding to coated TrkA fusion protein
Method: (§1) Human TrkA and p75 receptor fusion proteins (R&D Systems) were diluted in Dulbecco's PBS (Gibco) to final concentrations of 10 nM and 0.6 nM, respectively. Maxisorp Nunc white 96 well microtitre plates (Nalge Nunc) were coated overnight at 4° C. with 100 μl/well of the diluted TrkA or p75 receptor solution. Plates were washed 3 times with PBS Tween 20, and then blocked with 200 μl/well 3% w/v bovine serum albumin (BSA) in PBS. Plates were washed after 1 h incubation at room temperature. Test antibodies were diluted to the desired concentration in assay buffer (0.5% w/v BSA and 0.05% v/v Tween 20 in PBS). […] Duplicate wells were prepared for each concentration of test sample. […] Bound radiolabel was quantified by addition of 100 μl/well Microscint 20 (Perkin Elmer) followed by counting using a Packard TopCount microplate liquid scintillation counter. Data were plotted and analysed using Graphpad Prism software to calculate IC₅₀ values for each experiment, and to derive the corresponding Ki according to the Cheng-Prusoff equation; Ki=IC₅₀/(1+D/Kd) Where: [0257]

[2] = target: T2, human nerve growth factor (beta-NGF) (human, UniProt P01138 122-241); test: inhibition of human 125I-NGF binding to coated TrkA fusion protein
T2 sequence (P01138 122-241): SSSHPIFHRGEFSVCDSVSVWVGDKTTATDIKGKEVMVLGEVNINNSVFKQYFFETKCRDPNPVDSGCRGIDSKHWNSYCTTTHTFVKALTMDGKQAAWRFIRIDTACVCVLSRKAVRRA
Method: as §1

[3] = target: T1, rat nerve growth factor (beta-NGF); test: inhibition of rat 125I-NGF binding to coated p75 fusion protein
Method: as §1

[4] = target: T2, human nerve growth factor (beta-NGF); test: inhibition of human 125I-NGF binding to coated p75 fusion protein
Method: as §1

[5] = target: T1, rat nerve growth factor (beta-NGF); test: cell-based or functional assay
[6] = target: T2, human nerve growth factor (beta-NGF); test: cell-based or functional assay
[7] = target: T2, human nerve growth factor (beta-NGF); test: purified scFv, inhibition of human NGF binding to TrkA fusion protein
[8] = target: T1, rat nerve growth factor (beta-NGF); test: purified scFv, inhibition of rat NGF binding to TrkA fusion protein

T1 sequence (P25427 122-241): as the sequence (P01138 122-241) above, with S3T, I6V, R9M, M37T, D60A, D65E, M92T, G94D, V117A, A120G counted along it

| IC50 [7] [nM] | IC50 [8] [nM] | Molecule | further results |
| --- | --- | --- | --- |
| – | – | mouse anti-mouse NGF MAB5260Z (Chemicon) (antibody) | IC50 [1]: 0.31 nM; Ki [1]: 0.288 nM; IC50 [2]: 0.368 nM; Ki [2]: 0.333 nM; IC50 [3]: 0.587 nM; Ki [3]: 0.532 nM; IC50 [4]: 0.57 nM; Ki [4]: 0.472 nM |
| – | – | 1016A8 human IgG4 (antibody, V domains shown) VH: EVQLVQSGAELKKPGASVKVSCKASGYPFTSYYMHWVRQAPGQGLEWMGLVDPEDGETIYAEKFQGRVTITADTSTDTAYMELSSLRSEDTAVYSCATSSHNYGTASYYHYGMDVWGRGTMVTVSS VL: QSVLTQPPSASGTPGQRVTISCSGSSSNIGSNTVNWYQRLPGAAPQLLIYNNDQRPSGIPDRFSGSKSGTSGSLVISGLQSEDEADYYCASWDDSLNGRVFGGGTKLTVL | IC50, calcium mobilisation assay [5]: 14 nM; IC50, calcium mobilisation assay [6]: 65 nM |
| – | – | 1057F11 human IgG4 (antibody, V domains shown) VH: EVQLVETGGGVVQPGTSLRLSCAASGFTFSSHGMHWVRQAPGQGLEWVAHAWSDGSNKYYADSLKGRFTISRDNSRNTLYLQMNSLRAEDTAVYYCARDGQQLANYAMDVWGRGTTVTVSS VL: DIQMTQSPSFLSASVGDRVTITCRASQGINSYLAWYQQIPGKAPNLLIYAASTLQSGVPSRFSGSGSGTEFTLTISSLQPEDFATYYCQQLNTYPFTFGPGTKVEIK | IC50, calcium mobilisation assay [6]: ~3700 nM |
| – | – | 1033B2 human IgG4 (antibody, V domains shown) VH: QVQLQQSGAEVKKPGSSVKLSCKASGGTFSSFGISWVRQAPGQGLEWLGRIIPFLGPADYAQKFQGRVTITADESRSTAYMELSSLTSEDTAVYFCARSFYDILTGYYEGVFYYYMDVWGQGTMVTVSS VL: QSVLIQPASVSGSPGQSITISCTGTSSDVGGYNYVSWYQQHPGKAPKLMIYEGSKRPSGVSNRFSGSKSGNTASLTISGLQAEDEADYYCSSYTTRSTRVFGGGTKLTVL | IC50, calcium mobilisation assay [6]: 85 nM |
| – | – | 1028F8 human IgG4 (antibody, V domains shown) VH: EVQLLESGGGLVQPGGSLRLSCAASGFTFSSYAMSWVRQAPGKGLEWVSAIIGSGGSTYYADSVKGRFTISRDNSKNTLYLQMNSLRAEDTAVYYCARAGGSGWFENWFDPWGRGTLVTVSS VL: QSVLTQPPSVSVSPGQTATITCSGDNLEDKYVSWYQQKAGQSPVLVIFQDSKRPSEIPERFSGSNSGNTATLTISGTLSGDEADYYCQVWDAGIDPWAFGGGTKLTVL | IC50, calcium mobilisation assay [6]: 73 nM |
| < 0.01 | 0.09 | 1131H2 scFv (scFv, V domains shown, also called LOT1131H02) VH: EVQLVQSGAEVKKPGSTVKVSCKASGGTFSTYGISWVRQAPGQGLEWIGGIIPIFDTGNSAQSFQGRVTITADESTSTAYMEVSSLRSDDTAVYYCASSSRIYDLNPSLTAYYDMDVWGQGTMVTVSS VL: QAVLTQPSSVSTPPGQKVTISCSGTSSNIGNNYVSWYQQLPGTAPKLLIYDNNKRPSGIPDRFSGSKSGTSATLGITGLQTGDEADYYCGTWDSSLSAWVFGGGTKLTVL | – |
| 0.14 | 0.22 | 1160E3 scFv (scFv, V domains shown, also called LOT1160E03) VH: EVQLVQSGAEVKKPGSSAKVSCKASGGTFSTYGISWVRQAPGQGLEWIGGIIPIFDTGNSAQSFQGRVTITADESTSTAYMEVSSLRSDDTAVYYCASSSRIYDLNPSLTAYYDMDVWGQGTMVTVSS VL: QAVLTQPSSVSTPPGQKVTISCSGSNSNIGNNYVSWYQQLPGTAPKLLIYDNNKRPSGIPDRFSGSKSGTSATLGITGLQTGDEADYYCGTWDSSLSAWVFGGGTKLTVL | – |
| 0.11 | 0.29 | 1165D4 scFv (scFv, V domains shown, also called LOT1165D04) VH: EVQLVQSGAEVKKPGSSVKVSCKASGGTFSTYGISWVRQAPGQGLEWIGGIIPIFDTGNSAQSFQGRVTITADESTSTAYMEVSSLRSDDTAVYYCASSSRIYDLNPSLTAYYDMDVWGQGTMVTVSS VL: QAVLTQPSSVSTPPGQKVTISCSGSSSNIENNYVSWYQQLPGTAPKLLIYDNNKRPSGIPDRFSGSKSGTSATLGITGLQTGDEADYYCGTWDSSLSAWVFGGGTKLTVL | – |
| 0.25 | 0.01 | 1147G9 scFv (scFv, V domains shown, also called LOT1147G09) VH: EVQLVQSGAEVKKPGSSVKVSCKASGGTFSAYGISWVRQAPGQGLEWIGGIIPIFNTGNSAQSFQGRVTITADESTSTAYMEVSSLRSDDTAVYYCASSSRIYDLNPSLTAYYDMDVWGQGTMVTVSS VL: QAVLTQPSSVSTPPGQKVTVSCSGSSSNIGNNYVSWYQQLPGTAPKLLIYDNNKRPSGIPDRFSGSKSGTSATLGITGLQTGDEADYYCGTWDSSLSAWVFGGGTKLTVL | – |
| 0.14 | 0.2 | 1134D9 scFv (scFv, V domains shown, also called LOT1134D09) VH: EVQLVQSGAEVKKPGSSVKVSCKASGGTFSTYGISWVRQAPGQGLEWIGGIIPIFDTGNSAQSFQGRVAITADESTSTAYMEVSSLRSDDTAVYYCASSSRIYDLNPSLTAYYDMDVWGQGTMVTVSS VL: QAVLTQPSSVSTPPGQKVTISCSGSSSNIGNNYVSWYQQLPGTAPKLLIYDNNKRPSGIPDRFSGSKSGTSATLGITGLQTGDEADYYCGTWDSGLSAWVFGGGTKLTVL | – |
| 1.93 | 1.24 | 1133C11 scFv (scFv, V domains shown, also called LOT1133C11) VH: EVQLVQSGAEVKKPGSSVKVSCKASGGTFSTYGISWVRQAPGQGLEWIGGIIPIFDTGNSAQSFQGRVTITADESTSTAYMEVSSLRSDDTAVYYCASSSRIYDLNPSLTAYYDMDVWGQGTMVTVSS VL: QAVLTQPSSVSTPPGQKVTISCSGSSSNIGNNYVSWYQQLPGTAPKLLIYDNNKRPSGIPDRFSGSKSGTSATLGITGLQTGDEADYYCGTWDSSLSAWVFGGGTKLTVL | – |
| 0.23 | 0.02 | 1146D7 scFv (scFv, V domains shown, also called LOT1146D07) VH: EVQLVQSGAEVKKPGSSVKVSCKASGGTFSTYGISWVRQAPGQGLEWIGGIIPIFDTGNSAQSFQGRVTITADESTSTAYMEVSSLRSDDTAVYYCASSSRIYDLNPSLTAYYDMDVWGQGTMVTVSS VL: QAVLTQPSSVSTPPGQEVTISCSGSSTNIGNNYVSWYQQLPGTAPKLLIYDNNKRPSGIPDRFSGSKSGTSATLGITGLQTGDEADYYCGTWDSSLSAWVFGGGTKLTVL | – |
| 0.54 | 0.68 | 1132H9 scFv (scFv, V domains shown, also called LOT1132H09) VH: EVQLVQSGAEVKKPGSSVKVSCKASGGTFSTYGISWVRQAPGQGLEWIGGIIPIFDTGNSAQSFQGRVTITADESTSTAYMEVSSLRSDDTAVYYCASSSRIYDLNPSLTAYYDMDVWGQGTMVTVSS VL: QAVLTQPSSVSTPPGQKVTISCSGSSSDIGNNYVSWYQQLPGTAPKLLIYDNNKRPTGIPDRFSGSKSGTSATLGITGLQTGDEADYYCGTWDSSLSAWVFGGGTKLTVL | – |
| < 0.01 | 0.03 | 1218H5 scFv (scFv, V domains shown, also called LOT1218H05) VH: EVQLVQSGAVVKKPGSSVKVSCKASGGTFSTYGISWVRQAPGQGLEWIGGIIPIFDTGSSAQSFQGRVTITADESTSTAYMEVSSLRSDDTAVYYCASSSRIYDLNPSLTAYYDMDVWGQGTMVTVSS VL: QAVLTQPSSVSTPPGQKVTISCSGSSSNTGNNYVSWYQQLSGTAPKLLIYDNNKRPSGIPDRFSGSKSGTSATLGITGLQTGDEADYYCGTWDSSLSAWVFGGGTKLTVL | – |
| < 0.01 | 0.1 | 1147D2 scFv (scFv, V domains shown, also called LOT1147D02) VH: EVQLVQSGAEVKKPGSSVRISCKASGGTFSTYGVSWVRQAPGQGLEWIGGIIPIFDTGNSAQSFQGRVTITADESTSTAYMEVSSLRSDDTAVYYCASSSRIYDLNPSLTAYYDMDVWGQGTMVTVSS VL: QAVLTQPSSVSTPPGQKVTISCSGSSSNIGNNYVSWYQQLPGTAPKLLIYDNNKRPSGVPDRFSGSKSGTSATLGITGLQTGDEADYYCGTWDSSLSAWVFGGGTKLTVL | – |
| 0.2 | 0.16 | 1150F1 scFv (scFv, V domains shown, also called LOT1150F01) VH: EVQLVQSGAEVKKPGSSVKVSCKASGGTFSTYGISWVRQAPGQGLEWIGGIIPIFDTGNSAQSFQDRVTITADESTSTAYMEVGSLRSDDTAVYYCASSSRIYDLNPSLTAYYDMDVWGHGTMVTVSS VL: QAVLTQPSSVSTPPGQKVTISCSGSSSNIGNNYVSWYQQLPGTAPKLLIYDNNKRPSGIPDRFSGSKSGTSATLGITGLQTGDEADYYCGTWDSSLSAWVFGGGTKLTVL | – |
| – | – | 1033G9 human IgG4 (antibody, V domains shown) VH: EVQLVQSGAEVRKPGSSVKVSCKASGDTSTLYSINWVRQVPGQGLEWMGAIIPIFGLTDYAQEFQGRLTITADESTNTAYMELTGLRSEDTAIYYCARNLFTTLSYWYFDLWGQGTLVTVSS VL: SSELTQDPAVSVALGQTVRITCQGDRLRSYYASWYQQKPGQAPVLVIYGKNNRPSGIPDRFSGSSSGNTASLTITGAQAEDEADYYCNSRDSSGNHVVFGGGTLLTVL | IC50, calcium mobilisation assay [5]: 26 nM; IC50, calcium mobilisation assay [6]: 55 nM |
